Test results: US11733246B2, “Compositions, imaging, and therapeutic methods targeting folate receptor 1 (FOLR1)” (Indi Molecular, Inc., priority 2020, dated 2023)
Values joined by “and” are separate entries in the source; they are usually repeats but may differ in a detail not shown here. Equal values may be shown once. Numbered stars: 1 amine (or outer) side, 2 acyl side, 3 side chain; on linkers, the order of the positions; unused ones are H or OH. Bridge positions count the residues as written; N and C are the ends. Square brackets hold non-standard residues; d marks the D form. Triazole bridges read from a SMILES are 1,4-linked. Peptide text beside a SMILES is read from it. * marks the point of attachment. DOTA = O=C(O)CN1CCN(CC(=O)O)CCN(CC(=O)*)CCN(CC(=O)O)CC1; Pteroyl = Nc1nc2ncc(CNc3ccc(C(=O)*)cc3)nc2c(=O)[nH]1; Butanoyl(4-(4-MePh)) = Cc1ccc(CCCC(=O)*)cc1; Lys(N3) = [N-]=[N+]=NCCCC[C@H](N)C(=O)O; γGlu = O=C(O)[C@H](CCC(=O)[*:2])N[*:1]; AEEEA = NCCOCCOCCOCC(=O)O; Pra = C#CC[C@H](N)C(=O)O

What was measured:
[1] = tested on: OVCAR3 (FOLR1+) tumor bearing NSG mice; experiment: in vivo; conditions: mouse
Description: (§1) Female, 7-week-old NSG mice were housed under pathogen-free conditions. Water and food were provided ad libitum. To create mice with FOLR1+ ovarian xenograft tumors, mice were injected subcutaneously with OVCAR3 cells (1×10^7 cells per mouse) resuspended in 50% Matrigel in PBS into the shoulder region. Tumor growth was monitored by caliper measurements. OVCAR3 is a human ovarian adenocarcinoma known to over-express FOLR1.
(§2) ^68Ga PET imaging was used to study in vivo biodistribution of heterobiligands in non-tumor bearing (healthy) mice and OVCAR3 tumor bearing mice. 100-200 μCi of [^68Ga]DOTA-labeled heterobiligand was administered intravenously (i.v.) via the tail vein of each mouse. Dynamic PET imaging was performed from 0-1 h, followed by acquisition of static PET images at 2 h and 4 h post-injection. CT scans were acquired for anatomical reference. Imaging was performed on an Inveon microPET/CT small animal scanner. The PET signal was quantitated by three-dimensional ROI analysis and represented as percent injected dose (% ID) vs. time ([…]) for major organs including tumor, liver, heart, lung, bladder, and kidney.
(§3) Evaluation of a folate-hshta (SEQ ID NO:6) Nterm heterobiligand bearing both an albumin binder and DOTA chelator in PET was a priority, given that DOTA can accommodate both ^68Ga for imaging and ^177Lu for radiotherapy. A 200 μCi dose of ^68Ga-labeled folate-hshta-PEG3-Lys(MPBA)-Lys(DOTA) (SEQ ID NO:6) (compound #2809) was injected i.v. via tail vein in an NSG mouse bearing s.c. human OVCAR3 (FOLR1+) tumor. ^68Ga PET/CT imaging scans were performed at 0-1 h (dynamic), 2 h (static), and 4 h (static). […] The time-course biodistribution of ^68Ga-labeled folate-hshta-PEG3-Lys(MPBA)-Lys(DOTA) (SEQ ID NO:6) (compound #2809) was calculated to quantify the uptake in major organs including the tumor (FIG. 17). […] Larger tumors (490 mm^3) were also evaluated with the ^68Ga-chelated PET probe.
(§4) Images were captured for compound #1307 at the time points 5 min, 10 min, 15 min, 30 min, 1 h, 2 h, and 4 h. PET/CT images were taken following the injection of 4 female NSG mice with ^68Ga-chelated compound #2809. […] Images for mouse 4 are shown in FIG. 23 (Compounds #1307 and #2809) and FIG. 24 (Compound #1307).
(§5) Biodistribution was initially evaluated by PET imaging, as the time frame for a significant portion of clearance is roughly similar to the time frame of PET imaging experiments. Indi ^68Ga-7327 was injected via the tail vein into OVCAR3 (FOLR+) tumor implanted female NSG mice once the tumor size reached 200 mm^3, and microPET/CT scans were acquired at 5 min, 10 min, 15 min, 30 min, 1 h, 2 h, and 4 h post-injection. PET images were corrected for CT-based photon attenuation, detector normalization and radioisotope decay and converted to units of percent injected dose per cc (% ID/cc).

in vivo = conditions: female, NSG, mouse, iv, total radioactivity
Description: as §1, §2, §3, §4, §5

OVCAR3 xenografts = experiment: 177Lu FOLR1 radioligand therapy in OVCAR3 xenograft model; type: in vivo, mouse
Description: Water and food were provided ad libitum. […] Tumor growth was monitored by caliper measurements.
OVCAR3 tumor bearing mice were used to study FOLR1-directed radioligand therapy (RLT) for treatment of ovarian cancer. Animals were administered a single dose of heterobiligand (vehicle control) or 111, 37, 18.5, 9.25, or 3.7 MBq [^177Lu]DOTA-labeled heterobiligand. Mice received the dose intravenously (i.v.) via the tail vein. To monitor the effect of the RLT, tumor size measurements were taken twice weekly and body weights were measured.
The engraftment was allowed to expand until palpable tumor sizes ranging in size from 218-384 mm^3 were detected. […] These observed effects were consistant with radiation overdosing. […] The best response was observed using 9.25 MBq Lu-177 Heterobiligand (compound #2809).
Single dose treatments at 18.5 MBq/nmol specific activity. OVCAR3 mouse model was used. 10^7 cell tumors were implanted in the mice one month before administration of ^177Lu-#6305. Five mice each were administered Cold #6305, 9.25 MBq Lu177-#6305, and 14.8 MBq Lu177-#6305, and two mice were administered 29.6 MBq Lu177-#6305. Tumor growth and body weight were then monitored.
Female NSG mice were implanted subcutaneously with OVCAR3 cells. Once tumors reached volumes of 200 mm^3, the animals were treated with 177-Lu 7327. Three treatment arms of 9.25 MBq, 14.8 MBq, and 29.6 MBq were studied.
Female NSG mice were implanted subcutaneously with human OVCAR3 (FOLR+) ovarian cancer cells. Once tumors reached volumes of 200 mm^3, the animals were treated with Indi ^177Lu-7327. One treatment arm of 74 MBq and a control group of 0 MBq were studied (FIGS. 41 and 38A). […] The second dose was administered 21 days following the first dose. Statistically significant differential between treated and control was reached 24 days post-injection (three days following the second dose) for the 74 MBq arm. P values (* for p≤0.05, ** for p≤0.01) were determined by ordinary one-way ANOVA with Tukey's multiple comparisons test.

[2] = mouse, in vivo
Description: At endpoint, mice were sacrificed and plasma and tissues (tumor, kidney, liver, lung, muscle) were collected. Plasma samples were assayed for urea and creatinine biomarkers indicative of nephrotoxicity. Tissue samples were fixed in 10% buffered formalin, transferred to 70% ethanol, and embedded in paraffin for immunohistochemistry.
The heterobiligand dosed in these studies is Folate-hshta-PEG3-Lys(MPBA)-Lys(DOTA) (Compound #2809; SEQ ID NO:6)) labeled with ^177Lu. Plasma samples taken from tumor-bearing mice (at each dose) were assayed for biomarkers indicative of nephrotoxicity. These samples were compared to plasma taken from normal mice. Elevated urea levels in plasma could indicate kidney damage. Endogenous urea is converted to ammonia and carbon dioxide by the addition of urease. Berthelot's reagent reacts with the dissolved ammonia. The resulting green coloration can be used to back-calculate the amount of urea present in the original plasma sample.
Mouse plasma samples (five mice each from the 0 MBq control group, 3.7 MBq group, and 9.25 MBq group) taken at endpoint and normal mouse plasma were evaluated in urea assays to gain information on renal function. […]
In order to understand the toxicity-limiting tissues and organs, plasma was collected from the therapy studies and analyzed for blood urea nitrogen (BUN) and creatinine. […]

OVCAR3 FOLR1+ cells [3] = experiment: Flow cytometry binding to FOLR1 (+) cells; type: cell-based, human; conditions: OVCAR3 vs PC-3, flow cytometry
Description: Both the kyeet (SEQ ID NO:9) and hshta (SEQ ID NO:6)-derived biligands were tested by flow cytometry for binding to FOLR1 (+) and FOLR1 (−) cell lines (FIGS. 6 and 7). The human ovarian adenocarcinoma-derived cell line OVCAR3 has robust FOLR1 expression and was selected as the FOLR1 (+) cell line. The human prostate adenocarcinoma-derived cell line PC-3 was selected as a FOLR1 (−) cell line.
Competition at the cellular level was also probed.
Increasing the serum-bound fraction of the peptide may decrease first pass removal of the heterobiligand, and drive compound retention of tumor over kidney. Constructs bearing the known albumin binder 4-methylphenyl butyric acid (4-MPBA) were synthesized. These compounds were evaluated in vitro to verify binding fidelity to FOLR1. The modified heterobiligands were incubated at 400 nM with OVCAR3 and PC-3 cells for 20 minutes at 37° C. in complete media containing 20% FBS. They both bind to OVCAR3 FOLR1+ cells with similar binding affinities as the original heterobiligand studied (FIG. 14). […] Similar activity of these heterobiligands is anticipated in vivo.

OVCAR3 FOLR1+ cells [4] = experiment: Flow cytometry binding to FOLR1 (+) cells; type: cell-based, human; conditions: 40 nM of the test article
human serum albumin = human serum albumin (Homo sapiens, UniProt P02768); conditions: read-out: affinity for human serum albumin; cited from earlier work

C[C@H](O)[C@H]1NC(=O)[C@@H](Cc2cnc[nH]2)NC(=O)[C@@H](CO)NC(=O)[C@@H](Cc2cnc[nH]2)NC(=O)[C@@H](NC(=O)CC[C@H](NC(=O)c2ccc(NCc3cnc4nc(N)[nH]c(=O)c4n3)cc2)C(=O)O)Cc2cn(nn2)CCCC[C@@H](C(=O)NCC(=O)N[C@@H](Cc2ccccc2)C(=O)N[C@@H](CCCCNC(=O)CN2CCN(CC(=O)O)CCN(CC(=O)O)CCN(CC(=O)O)CC2)C(=O)O)NC(=O)[C@@H](C)NC1=O [Indi ^68Ga-7327, metal not drawn] ({Pteroyl-γGlu}-[Pra][dH][dS][dH][dT][dA][Lys(N3)]GFK(DOTA)-OH; triazole 1-7)
kidney uptake [1]: significant reduction in kidney uptake | tissue uptake per volume at 4 h (in vivo; accumulation in the tumor): 1.55 %ID/mL

Cc1ccc(CCCC(=O)NCCCC[C@H](NC(=O)COCCOCCOCCNC(=O)[C@@H]2CCCCn3cc(nn3)C[C@H](NC(=O)CC[C@H](NC(=O)c3ccc(NCc4cnc5nc(N)[nH]c(=O)c5n4)cc3)C(=O)O)C(=O)N[C@H](Cc3c[nH]cn3)C(=O)N[C@H](CO)C(=O)N[C@H](Cc3c[nH]cn3)C(=O)N[C@H]([C@H](C)O)C(=O)N[C@H](C)C(=O)N2)C(=O)N[C@@H](CCCCNC(=O)CN2CCN(CC(=O)O)CCN(CC(=O)O)CCN(CC(=O)O)CC2)C(N)=O)cc1 [^68Ga-chelated compound #2809, metal not drawn] ({Pteroyl-γGlu}-[Pra][dH][dS][dH][dT][dA][Lys(N3)][AEEEA]K(Butanoyl(4-(4-MePh)))K(DOTA)-NH2; triazole 1-7)
tissue uptake per volume at 4 h (in vivo; 200 uCi, dose accumulation in the tumor): ~1.4 %ID/mL

Cc1ccc(CCCC(=O)NCCCC[C@H](NC(=O)COCCOCCOCCNC(=O)[C@@H]2CCCCn3cc(nn3)C[C@H](NC(=O)CC[C@H](NC(=O)c3ccc(NCc4cnc5nc(N)[nH]c(=O)c5n4)cc3)C(=O)O)C(=O)N[C@H](Cc3c[nH]cn3)C(=O)N[C@H](CO)C(=O)N[C@H](Cc3c[nH]cn3)C(=O)N[C@H]([C@H](C)O)C(=O)N[C@H](C)C(=O)N2)C(=O)N[C@@H](CCCCNC(=O)CN2CCN(CC(=O)O)CCN(CC(=O)O)CCN(CC(=O)O)CC2)C(N)=O)cc1 [^177Lu-#2809, metal not drawn] ({Pteroyl-γGlu}-[Pra][dH][dS][dH][dT][dA][Lys(N3)][AEEEA]K(Butanoyl(4-(4-MePh)))K(DOTA)-NH2; triazole 1-7)
Comments (deaths / survival) (OVCAR3 xenografts; ^177Lu dose 0 (peptide alone), 3 mice): Sacrificed on day 24 | Comments (deaths / survival) (OVCAR3 xenografts; ^177Lu dose 0.1 mCi (3.7 MBq), 2 mice): Sacrificed on day 24 | Comments (deaths / survival) (OVCAR3 xenografts; ^177Lu dose 0.25 mCi (9.25 MBq), 2 mice): Sacrificed on day 24 | Comments (deaths / survival) (OVCAR3 xenografts; ^177Lu dose 0.5 mCi (18.5 MBq), 2 mice, listed as DOTA-Heterobiligand Albumin binder conjugate): 1 mouse died on day 10 and 1 mouse died on day 13 | Comments (deaths / survival) (OVCAR3 xenografts; ^177Lu dose 1 mCi (37 MBq), 2 mice): 2 mice died on day 10 | Comments (deaths / survival) (OVCAR3 xenografts; ^177Lu dose 3 mCi (111 MBq), 3 mice, listed as DOTA-Heterobiligand Albumin binder conjugate): 1 mouse died on day 5 and 2 mice died on day 4 | BUN level relative to normal mice [2]: 1.5 times

C[C@H](O)[C@H]1NC(=O)[C@@H](CCC(=O)O)NC(=O)[C@@H](CCC(=O)O)NC(=O)[C@@H](Cc2ccc(O)cc2)NC(=O)[C@@H](CCCCN)NC(=O)[C@@H](NC(=O)[C@H](Cc2cn(CCOCCOCCOCCNC(=O)CC[C@H](NC(=O)c3ccc(NCc4cnc5nc(N)[nH]c(=O)c5n4)cc3)C(=O)O)nn2)NC(=O)CCOCCOCCOCCOCCOCCOCCOCCOCCOCCOCCNC(=O)CCOCCOCCOCCOCCOCCOCCOCCOCCOCCOCCNC(=O)CCCC[C@@H]2SC[C@@H]3NC(=O)N[C@@H]32)Cc2cn(nn2)CCCC[C@@H](C(N)=O)NC1=O [folate-kyeet heterobiligand]
selectivity for FOLR1 (+) cells over FOLR1 (−) cells (OVCAR3 FOLR1+ cells [3]): high selectivity for FOLR1 (+) cells | selectivity for FOLR1 (+) cells (OVCAR3 FOLR1+ cells [4]): Virtually complete selectivity

GI48-GA: albumin-binding domain, fragment of protein G from Streptococcus strain GI48 (SEQ ID NO:33) (LAEAKVLANRELDKYGVSDYYKNLINNAKTVEGVKALIDEILAA)
Kd (human serum albumin): 1 nM
